In publication PMC4333373, “Specific and non-specific interactions of ParB with DNA: implications for chromosome segregation”:

Tests used:
[1] = biological target: T1, ParB (Spo0J) (Bacillus subtilis 168, UniProt P26497 1-282); assay: SEC-MALS; 9 uM ParB2, 10 uM DNA; 81.6 ± 1.9 kDa, one dimer per DNA; 50 mM Hepes-KOH pH 7.5, 100 mM KCl, 2.5 mM MgCl2, 0.1 mg/ml BSA, 1 mM DTT, 20 nM DNA; EMSA also 2.5% Ficoll, room temperature 30 min then ice 5 min, gel at 4 C; settings: protein: recombinant; tags: untagged; chain copies: 2; label: 5'-Hex on forward strand; blunt
T1 sequence: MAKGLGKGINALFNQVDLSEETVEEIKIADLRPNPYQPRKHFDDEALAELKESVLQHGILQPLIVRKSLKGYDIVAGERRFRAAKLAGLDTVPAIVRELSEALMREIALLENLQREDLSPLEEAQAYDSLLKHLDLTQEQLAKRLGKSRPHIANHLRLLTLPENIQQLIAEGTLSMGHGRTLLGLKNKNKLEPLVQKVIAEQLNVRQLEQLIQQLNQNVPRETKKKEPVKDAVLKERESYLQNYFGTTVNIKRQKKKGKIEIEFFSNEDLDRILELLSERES

[2] = biological target: T1, ParB (Spo0J); assay: SEC-MALS; 50 mM Hepes-KOH pH 7.5, 100 mM KCl, 2.5 mM MgCl2, 0.1 mg/ml BSA, 1 mM DTT, 20 nM DNA; EMSA also 2.5% Ficoll, room temperature 30 min then ice 5 min, gel at 4 C; settings: protein: recombinant, tags: untagged, chain copies: 2, blunt
[3] = biological target: T1, ParB (Spo0J); assay: SEC-MALS; 80 uM ParB2; 50 mM Hepes-KOH pH 7.5, 100 mM KCl, 2.5 mM MgCl2, 0.1 mg/ml BSA, 1 mM DTT, 20 nM DNA; EMSA also 2.5% Ficoll, room temperature 30 min then ice 5 min, gel at 4 C; settings: protein: recombinant; tags: untagged; chain copies: 2; label: 5'-Hex on forward strand; blunt
[4] = label: 5'-Hex on forward strand

B1: 24-bp parS (dsDNA)
DNA 1: AGAATGTTCCACGTGAAACAAAGA
DNA 2: TCTTTGTTTCACGTGGAACATTCT
[1]
  binding result: binds

B2: 50-bp parS (dsDNA)
DNA 1: CAGCAGTTGAATCAGAATGTTCCACGTGAAACAAAGAAAAAAGAACCTGT
DNA 2: ACAGGTTCTTTTTTCTTTGTTTCACGTGGAACATTCTGATTCAACTGCTG
[2]; label: 5'-Hex on forward strand (SEC-MALS)
  binding result: binds

B3: 100-bp parS (dsDNA)
DNA 1: TGTTCGCCAACTTGAGCAGCTGATTCAGCAGTTGAATCAGAATGTTCCACGTGAAACAAAGAAAAAAGAACCTGTGAAAGATGCGGTTCTAAAAGAACGG
DNA 2: CCGTTCTTTTAGAACCGCATCTTTCACAGGTTCTTTTTTCTTTGTTTCACGTGGAACATTCTGATTCAACTGCTGAATCAGCTGCTCAAGTTGGCGAACA
[2]; [4]
  binding result: binds

B4: 100-bp non-specific (dsDNA)
DNA 1: TGTTCGCCAACTTGAGCAGCTGATTCAGCAGTTGAATCAGAACGTGCCCAGGGAGACAAAGAAAAAAGAACCTGTGAAAGATGCGGTTCTAAAAGAACGG
DNA 2: CCGTTCTTTTAGAACCGCATCTTTCACAGGTTCTTTTTTCTTTGTCTCCCTGGGCACGTTCTGATTCAACTGCTGAATCAGCTGCTCAAGTTGGCGAACA
[2]; [4]
  binding result: binds

B5: 24-bp non-specific (dsDNA)
DNA 1: AGAACGTGCCCAGGGAGACAAAGA
DNA 2: TCTTTGTCTCCCTGGGCACGTTCT
[3]
  binding result: binds
